No end group written: not given here. Pam2 = lipid part of the lipopeptide Pam2CSK4
Biological target: soluble form of human recombinant TLR2 (extracellular domain Glu 21-Leu 590) (human, UniProt O60603 21-590)
Sequence (O60603 21-590): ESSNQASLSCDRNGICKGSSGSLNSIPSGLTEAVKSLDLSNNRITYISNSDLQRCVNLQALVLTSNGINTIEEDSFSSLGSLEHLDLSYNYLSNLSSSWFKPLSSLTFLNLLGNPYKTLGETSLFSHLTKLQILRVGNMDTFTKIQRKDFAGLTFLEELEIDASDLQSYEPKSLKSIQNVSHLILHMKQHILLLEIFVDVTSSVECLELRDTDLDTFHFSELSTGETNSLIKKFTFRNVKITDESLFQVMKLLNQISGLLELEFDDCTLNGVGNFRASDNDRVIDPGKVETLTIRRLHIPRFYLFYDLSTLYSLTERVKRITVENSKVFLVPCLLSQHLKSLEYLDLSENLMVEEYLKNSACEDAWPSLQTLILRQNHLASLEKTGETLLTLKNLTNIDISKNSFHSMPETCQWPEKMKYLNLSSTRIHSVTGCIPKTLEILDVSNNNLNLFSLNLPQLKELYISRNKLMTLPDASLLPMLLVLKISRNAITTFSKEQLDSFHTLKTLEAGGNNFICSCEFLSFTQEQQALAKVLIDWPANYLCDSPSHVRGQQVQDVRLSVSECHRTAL

With C(Pam2)SKKKK [Pam2CSK4 lipopeptide] the Kd was 5.34 µM.

Source: paper PMC2413007 (2008)
